Experiments:
c-Src SH2 = test: SH2 binding enrichment of the phosphorylated peptide, bacterial display (enrichment ratio); higher = better substrate or ligand; peptides without Tyr show the background
Grb2 SH2 = Grb2 SH2 (UniProt P62993); test: as above
SHP2-C SH2 = test: as above
EPHB1 = EPHB1 (UniProt P54762); test: phosphorylation enrichment, bacterial display (enrichment ratio); higher = better substrate or ligand; peptides without Tyr show the background
Fyn = Fyn (UniProt P06241); test: as above
FGFR1 = FGFR1 (UniProt P11362); test: as above
AncSZ = test: as above
c-Src = test: as above
Jak2 = Jak2 (UniProt O60674); test: as above
Jak2, sequence (O60674 whole entry, looked up): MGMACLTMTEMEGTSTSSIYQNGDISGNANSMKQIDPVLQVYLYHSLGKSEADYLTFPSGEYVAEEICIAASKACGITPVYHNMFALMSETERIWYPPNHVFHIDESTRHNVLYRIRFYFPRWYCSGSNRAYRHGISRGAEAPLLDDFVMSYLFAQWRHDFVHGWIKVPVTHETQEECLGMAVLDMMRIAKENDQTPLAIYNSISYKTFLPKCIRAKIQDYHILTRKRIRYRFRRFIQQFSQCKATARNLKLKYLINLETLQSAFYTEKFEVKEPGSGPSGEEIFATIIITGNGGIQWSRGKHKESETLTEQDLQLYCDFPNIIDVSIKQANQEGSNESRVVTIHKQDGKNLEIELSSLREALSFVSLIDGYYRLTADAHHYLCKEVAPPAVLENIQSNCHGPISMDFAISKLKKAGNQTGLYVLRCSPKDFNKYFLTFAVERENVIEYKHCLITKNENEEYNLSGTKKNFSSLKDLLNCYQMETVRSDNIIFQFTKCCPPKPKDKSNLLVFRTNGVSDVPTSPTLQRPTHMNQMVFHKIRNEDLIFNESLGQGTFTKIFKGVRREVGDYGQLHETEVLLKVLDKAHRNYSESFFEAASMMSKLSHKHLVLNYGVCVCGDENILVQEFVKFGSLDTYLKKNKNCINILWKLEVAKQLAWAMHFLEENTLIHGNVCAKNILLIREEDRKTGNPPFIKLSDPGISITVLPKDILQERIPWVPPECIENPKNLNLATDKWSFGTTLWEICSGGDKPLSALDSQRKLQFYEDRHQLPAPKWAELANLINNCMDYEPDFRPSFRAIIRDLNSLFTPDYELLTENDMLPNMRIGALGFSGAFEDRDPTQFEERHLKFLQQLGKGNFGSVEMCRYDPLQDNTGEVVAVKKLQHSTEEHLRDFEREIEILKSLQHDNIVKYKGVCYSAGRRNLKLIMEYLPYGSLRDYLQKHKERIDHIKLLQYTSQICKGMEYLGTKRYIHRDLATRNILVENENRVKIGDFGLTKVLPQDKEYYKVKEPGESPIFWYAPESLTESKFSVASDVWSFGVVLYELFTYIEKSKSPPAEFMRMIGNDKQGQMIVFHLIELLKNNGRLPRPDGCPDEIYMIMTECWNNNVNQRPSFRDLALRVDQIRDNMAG

Hck = Hck (UniProt P08631); test: as above
Hck, sequence (P08631 whole entry, looked up): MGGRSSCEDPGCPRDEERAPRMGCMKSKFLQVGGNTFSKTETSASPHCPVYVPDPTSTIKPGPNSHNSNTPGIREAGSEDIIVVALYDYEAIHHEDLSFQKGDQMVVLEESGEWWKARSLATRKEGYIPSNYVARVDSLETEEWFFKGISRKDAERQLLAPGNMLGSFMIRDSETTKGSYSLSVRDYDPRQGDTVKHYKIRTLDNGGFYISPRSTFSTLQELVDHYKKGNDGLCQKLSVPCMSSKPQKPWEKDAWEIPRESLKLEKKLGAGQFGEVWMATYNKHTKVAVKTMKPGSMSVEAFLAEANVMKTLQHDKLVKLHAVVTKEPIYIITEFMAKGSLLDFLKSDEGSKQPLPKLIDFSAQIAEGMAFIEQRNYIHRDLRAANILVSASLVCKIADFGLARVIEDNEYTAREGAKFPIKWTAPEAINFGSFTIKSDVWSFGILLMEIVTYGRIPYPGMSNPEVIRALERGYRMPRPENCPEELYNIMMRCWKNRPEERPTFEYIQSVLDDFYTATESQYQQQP

EPHB2 = EPHB2 (UniProt P29323); test: as above
EPHB2, sequence (P29323 whole entry, looked up): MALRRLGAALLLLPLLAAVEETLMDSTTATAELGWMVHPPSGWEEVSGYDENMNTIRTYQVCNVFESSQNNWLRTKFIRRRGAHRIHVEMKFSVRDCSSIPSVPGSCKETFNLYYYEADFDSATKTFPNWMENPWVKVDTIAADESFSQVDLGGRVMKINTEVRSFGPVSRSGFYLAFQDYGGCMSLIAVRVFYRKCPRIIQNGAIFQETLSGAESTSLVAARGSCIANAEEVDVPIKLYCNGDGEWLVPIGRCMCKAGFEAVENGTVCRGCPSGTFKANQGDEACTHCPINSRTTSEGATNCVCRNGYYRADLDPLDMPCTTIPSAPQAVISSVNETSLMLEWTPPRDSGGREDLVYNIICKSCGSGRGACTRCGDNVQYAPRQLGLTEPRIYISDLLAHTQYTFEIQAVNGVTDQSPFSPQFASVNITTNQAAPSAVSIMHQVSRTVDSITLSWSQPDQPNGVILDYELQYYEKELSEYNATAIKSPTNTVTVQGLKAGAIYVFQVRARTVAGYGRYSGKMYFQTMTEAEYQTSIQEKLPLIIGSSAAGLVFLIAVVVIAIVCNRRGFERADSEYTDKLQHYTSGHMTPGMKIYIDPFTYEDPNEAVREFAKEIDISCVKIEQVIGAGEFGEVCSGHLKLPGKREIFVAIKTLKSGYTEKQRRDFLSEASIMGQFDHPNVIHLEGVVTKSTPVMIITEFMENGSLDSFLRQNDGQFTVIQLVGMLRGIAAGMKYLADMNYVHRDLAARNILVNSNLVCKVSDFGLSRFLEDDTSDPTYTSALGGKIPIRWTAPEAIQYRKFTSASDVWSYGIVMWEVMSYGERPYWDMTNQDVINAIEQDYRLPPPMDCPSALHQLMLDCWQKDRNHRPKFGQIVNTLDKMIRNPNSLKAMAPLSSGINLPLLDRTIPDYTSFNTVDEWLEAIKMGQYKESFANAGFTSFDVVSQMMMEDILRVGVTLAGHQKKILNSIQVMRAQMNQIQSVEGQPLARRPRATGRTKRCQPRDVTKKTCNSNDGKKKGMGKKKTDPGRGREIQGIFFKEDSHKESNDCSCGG

Fes = Fes (UniProt P07332); test: as above
MERTK = MERTK (UniProt Q12866); test: as above
MERTK, sequence (Q12866 whole entry, looked up): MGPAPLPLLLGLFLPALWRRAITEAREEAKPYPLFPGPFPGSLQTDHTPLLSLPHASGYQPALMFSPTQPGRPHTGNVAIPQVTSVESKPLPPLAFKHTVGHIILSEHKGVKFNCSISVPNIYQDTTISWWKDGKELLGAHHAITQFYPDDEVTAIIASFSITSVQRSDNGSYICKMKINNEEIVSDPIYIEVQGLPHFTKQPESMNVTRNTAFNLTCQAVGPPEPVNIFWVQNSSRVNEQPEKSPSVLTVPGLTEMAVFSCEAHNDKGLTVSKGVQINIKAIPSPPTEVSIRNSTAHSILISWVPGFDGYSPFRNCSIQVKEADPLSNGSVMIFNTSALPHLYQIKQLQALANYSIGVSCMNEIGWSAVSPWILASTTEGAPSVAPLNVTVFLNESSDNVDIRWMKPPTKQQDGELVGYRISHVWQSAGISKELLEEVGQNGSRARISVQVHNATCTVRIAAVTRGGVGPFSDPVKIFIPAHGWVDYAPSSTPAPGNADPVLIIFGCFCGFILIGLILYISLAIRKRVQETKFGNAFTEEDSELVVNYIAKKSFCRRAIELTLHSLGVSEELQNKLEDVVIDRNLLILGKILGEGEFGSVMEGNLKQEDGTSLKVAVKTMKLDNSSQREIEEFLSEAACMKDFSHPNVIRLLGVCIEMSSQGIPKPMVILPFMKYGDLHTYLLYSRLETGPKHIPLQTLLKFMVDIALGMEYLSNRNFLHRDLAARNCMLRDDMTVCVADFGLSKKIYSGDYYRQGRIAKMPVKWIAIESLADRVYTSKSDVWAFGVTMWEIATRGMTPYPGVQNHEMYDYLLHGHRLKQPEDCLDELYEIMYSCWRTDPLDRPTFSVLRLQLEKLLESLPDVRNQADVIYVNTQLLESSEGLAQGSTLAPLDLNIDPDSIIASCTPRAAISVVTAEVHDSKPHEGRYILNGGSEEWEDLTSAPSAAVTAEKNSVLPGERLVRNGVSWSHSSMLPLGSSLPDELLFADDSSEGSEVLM

FGFR3 = FGFR3 (UniProt P22607); test: as above
Fer (mouse) = test: as above
c-Abl (mouse) = test: as above
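Wherever SH2 binding enrichment of the phosphorylated peptide, bacterial display is given: peptide library displayed on the E. coli surface as eCPX fusions, selected cells deep-sequenced, score is each peptide's frequency after selection divided by its frequency in the input.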
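Wherever phosphorylation enrichment, bacterial display is given: 11-residue human phosphosite peptides and single-mutation variants displayed on the E. coli surface, counted by deep sequencing, each peptide's frequency after selection divided by its frequency in the unselected input library; frequency after pTyr selection over input frequency; kinase dosed for 20-30% of maximal phosphorylation in three min.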

EPHB1, sequence (P54762 whole entry, looked up): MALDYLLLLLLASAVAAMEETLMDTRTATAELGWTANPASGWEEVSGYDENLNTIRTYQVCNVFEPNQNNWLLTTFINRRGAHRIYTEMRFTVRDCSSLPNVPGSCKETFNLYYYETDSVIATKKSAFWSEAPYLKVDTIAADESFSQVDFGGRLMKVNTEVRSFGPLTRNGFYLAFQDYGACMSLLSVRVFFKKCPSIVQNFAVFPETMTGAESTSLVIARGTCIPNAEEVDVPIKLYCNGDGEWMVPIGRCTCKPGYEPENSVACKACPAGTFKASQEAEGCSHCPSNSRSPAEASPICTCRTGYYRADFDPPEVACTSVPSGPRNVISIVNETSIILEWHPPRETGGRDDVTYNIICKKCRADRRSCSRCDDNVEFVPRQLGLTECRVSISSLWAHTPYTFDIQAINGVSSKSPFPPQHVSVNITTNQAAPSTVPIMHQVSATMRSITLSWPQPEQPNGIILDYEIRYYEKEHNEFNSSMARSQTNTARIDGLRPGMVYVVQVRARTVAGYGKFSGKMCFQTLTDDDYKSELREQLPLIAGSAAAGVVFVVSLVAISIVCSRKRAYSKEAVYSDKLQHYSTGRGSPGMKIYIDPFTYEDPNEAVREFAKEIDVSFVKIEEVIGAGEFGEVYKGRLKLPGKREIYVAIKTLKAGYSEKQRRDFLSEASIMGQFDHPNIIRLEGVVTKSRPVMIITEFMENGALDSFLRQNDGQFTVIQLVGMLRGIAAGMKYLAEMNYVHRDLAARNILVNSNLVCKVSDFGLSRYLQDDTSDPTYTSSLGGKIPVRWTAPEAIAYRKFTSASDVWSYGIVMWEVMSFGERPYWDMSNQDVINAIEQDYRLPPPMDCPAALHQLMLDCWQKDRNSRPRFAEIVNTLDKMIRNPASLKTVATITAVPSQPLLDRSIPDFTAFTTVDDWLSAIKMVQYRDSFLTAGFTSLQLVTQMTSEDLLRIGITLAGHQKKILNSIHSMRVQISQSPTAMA
Grb2 SH2, sequence (P62993 whole entry, looked up): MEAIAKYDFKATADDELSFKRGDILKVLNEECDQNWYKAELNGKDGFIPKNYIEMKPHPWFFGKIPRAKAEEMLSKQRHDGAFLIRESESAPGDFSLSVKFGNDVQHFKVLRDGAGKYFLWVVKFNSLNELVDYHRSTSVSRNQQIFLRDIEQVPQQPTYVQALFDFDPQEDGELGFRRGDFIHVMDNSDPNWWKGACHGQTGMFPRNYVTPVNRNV

Sequence | SH2 binding enrichment (c-Src SH2) | SH2 binding enrichment (Grb2 SH2) | SH2 binding enrichment (SHP2-C SH2) | phosphorylation enrichment (EPHB1) | phosphorylation enrichment (Fyn) | phosphorylation enrichment (FGFR1) | phosphorylation enrichment (AncSZ) | phosphorylation enrichment (c-Src) | phosphorylation enrichment (Jak2) | phosphorylation enrichment (Hck) | phosphorylation enrichment (EPHB2) | phosphorylation enrichment (Fes) | phosphorylation enrichment (MERTK) | phosphorylation enrichment (FGFR3) | phosphorylation enrichment (Fer (mouse)) | phosphorylation enrichment (c-Abl (mouse))
IMITDYLPLFR [INSR_Y87_L89P] | 0.659 | 1.21 | 0.857 | 0.641 | 0.473 | 0.737 | 1.09 | 0.577 | 2.85 | 0.755 | 0.651 | 0.985 | 0.427 | 0.729 | 0.376 | 0.732
QLHREYCLSPR [HJURP_Y445] | 1 | 1.09 | 1.17 | 0.784 | 0.92 | 0.898 | 1.38 | 1.34 | 0.877 | 0.889 | 0.786 | 1.12 | 0.887 | 0.733 | 0.765 | 1.13
SVAVPYEPPEV [TP53_Y220_V217A] | 0.728 | 1.05 | 0.719 | 0.614 | 0.486 | 0.595 | 1.31 | 0.551 | 1.1 | 0.565 | 0.626 | 1.31 | 0.493 | 0.944 | 0.529 | 0.823
VMAVAYRLAEQ [HK1_Y461_T457M] | 0.685 | 1.26 | 1.03 | 0.619 | 0.431 | 0.463 | 0.972 | 0.463 | 1.04 | 0.445 | 0.496 | 1.06 | 0.46 | 0.676 | 0.491 | 0.708
KMGNIYRTEFG [MRPL3_Y265_YF] | 0.485 | 0.672 | 0.652 | 0.337 | 0.536 | 0.482 | 0.535 | 0.532 | 0.448 | 0.488 | 0.34 | 0.5 | 0.477 | 0.514 | 0.393 | 0.471
SVTCTYCPALN [TP53_Y126_S127C] | 1.19 | 1.24 | 1.35 | 0.38 | 0.545 | 0.564 | 0.84 | 0.581 | 0.629 | 0.495 | 0.413 | 0.779 | 0.611 | 0.46 | 0.394 | 0.683
MEFAKYGSLRG [RET_Y809_V804M_YF] | 0.453 | 1 | 0.729 | 0.427 | 0.456 | 0.514 | 0.604 | 0.484 | 0.495 | 0.49 | 0.629 | 0.628 | 0.417 | 0.448 | 0.348 | 0.454
PFTRNYYVWAV [CYBA_Y87_R90W] | 0.899 | 1.32 | 1.54 | 3.1 | 0.744 | 9.92 | 1.41 | 0.777 | 2.5 | 1.03 | 3.42 | 1.12 | 6.79 | 8.21 | 1.2 | 4.71
DFEGLYQEGGG [TMEM159_Y159_E154D] | 0.453 | 0.67 | 0.461 | 0.746 | 0.874 | 0.761 | 1.23 | 0.923 | 0.88 | 1.22 | 0.791 | 1.17 | 0.453 | 0.817 | 0.64 | 0.569
YRIDHYLGKEM [G6PD_Y202] | 0.589 | 0.678 | 0.665 | 0.467 | 0.757 | 0.57 | 0.716 | 0.485 | 0.865 | 0.57 | 0.627 | 0.909 | 0.508 | 0.654 | 0.445 | 0.706
DLGIQYKALKP [CTNNA1_Y177] | 0.361 | 0.897 | 0.594 | 0.568 | 0.388 | 0.507 | 0.754 | 0.449 | 0.725 | 0.485 | 0.442 | 0.853 | 0.453 | 0.631 | 0.498 | 0.573
IIEDPYFGNDS [ACP1_Y132_YF] | 0.541 | 0.946 | 0.584 | 0.804 | 0.867 | 0.695 | 1.59 | 1.74 | 1.45 | 0.96 | 0.62 | 1.62 | 0.651 | 1.1 | 0.711 | 1.04
PLGPLYASSNP [INSR_Y992] | 0.75 | 0.641 | 0.709 | 1.14 | 1.27 | 0.683 | 0.96 | 1.35 | 0.941 | 4.49 | 1.01 | 1.65 | 1.49 | 0.742 | 1.82 | 1.47
SPDMLYQFLKQ [RPAP3_Y567_YF] | 0.499 | 0.782 | 0.683 | 0.943 | 0.792 | 1.7 | 0.997 | 1.77 | 0.679 | 7.82 | 0.749 | 0.971 | 4.98 | 1.35 | 7.72 | 0.695
MSRNLYSGDCY [DDR2_Y736_Y740C] | 0.746 | 0.796 | 0.614 | 2.11 | 1.96 | 0.951 | 0.985 | 1.49 | 0.69 | 2.27 | 2.35 | 0.993 | 4.75 | 1.15 | 0.811 | 0.581
LVIIKYLPEWT [PSEN1_Y240_F237I] | 1.15 | 1.66 | 1.28 | 2.33 | 1.75 | 1.38 | 3.39 | 0.818 | 2.79 | 1.21 | 2.39 | 2.86 | 1.03 | 2.62 | 0.911 | 1.5
WIPIQDPIISE [NOG_Y222_Y222D] | 0.488 | 0.729 | 0.748 | 0.678 | 0.578 | 0.578 | 1.18 | 0.557 | 0.965 | 0.622 | 0.551 | 1.24 | 0.474 | 0.717 | 0.52 | 0.882

Sequence | SH2 binding enrichment (c-Src SH2) | SH2 binding enrichment (Grb2 SH2) | SH2 binding enrichment (SHP2-C SH2) | phosphorylation enrichment (EPHB1) | phosphorylation enrichment (Fyn) | phosphorylation enrichment (FGFR1) | phosphorylation enrichment (AncSZ) | phosphorylation enrichment (c-Src) | phosphorylation enrichment (Jak2) | phosphorylation enrichment (Hck) | phosphorylation enrichment (EPHB2) | phosphorylation enrichment (Fes) | phosphorylation enrichment (MERTK) | phosphorylation enrichment (FGFR3) | phosphorylation enrichment (Fer (mouse)) | phosphorylation enrichment (c-Abl (mouse))
FTGDIYSNSNL [LZTR1_Y141_YF] | 0.415 | 0.721 | 0.586 | 0.903 | 6.36 | 0.667 | 0.957 | 5.54 | 0.756 | 7.46 | 0.738 | 0.849 | 1.1 | 0.502 | 2.87 | 0.831
TEAEPYYCSLR [NPHS1_Y1138_R1140C] | 1.22 | 0.893 | 0.73 | 1.5 | 4.22 | 1.49 | 1.81 | 3.96 | 1.4 | 4.2 | 1.43 | 1.5 | 2.78 | 1.47 | 1.8 | 1.18
AHAGEYGAGAL [HBA1_Y25_E28G] | 0.403 | 0.776 | 0.589 | 0.376 | 0.405 | 0.365 | 0.575 | 0.489 | 0.608 | 0.49 | 0.434 | 0.539 | 0.395 | 0.485 | 0.384 | 0.616
PADSGYPAFLG [ATP6V1A_Y374_YF] | 0.423 | 0.765 | 0.502 | 1.51 | 1.04 | 0.981 | 1.72 | 0.772 | 1.1 | 0.959 | 0.6 | 1.88 | 0.87 | 1.36 | 0.759 | 1.12
WNDPDYMDSRR [GAA_Y407_L405P] | 0.417 | 0.679 | 0.581 | 0.989 | 0.493 | 0.553 | 1.46 | 0.453 | 0.779 | 0.472 | 0.687 | 1 | 0.351 | 0.727 | 0.432 | 0.614
LKKLEYLNLPL [LRRC6_Y70_A74P] | 0.69 | 10.3 | 1.4 | 0.531 | 0.364 | 1.26 | 0.818 | 0.374 | 0.694 | 0.518 | 0.441 | 0.741 | 0.423 | 1.12 | 0.47 | 0.622
DHPSEYAARQL [ANXA13_Y90_R86H] | 0.483 | 0.826 | 0.657 | 0.352 | 0.454 | 0.496 | 0.657 | 0.482 | 0.576 | 0.525 | 0.494 | 0.633 | 0.453 | 0.445 | 0.365 | 0.66
FFHCTYKQRMI [CLEC12A_Y242_K244Q_YF] | 0.902 | 1.27 | 1.07 | 0.687 | 0.493 | 0.643 | 1.04 | 0.435 | 1.02 | 0.498 | 0.608 | 1.28 | 0.517 | 0.752 | 0.513 | 0.85
GQLIFYAPPEW [CNTN6_Y315] | 0.781 | 1.09 | 0.963 | 0.938 | 0.576 | 0.513 | 1.39 | 0.822 | 1.5 | 0.829 | 3.08 | 1.18 | 3.46 | 0.731 | 2.04 | 2.95
TTPGPYRSIFF [MPG_Y71_YF] | 0.688 | 0.997 | 3.79 | 0.493 | 0.514 | 0.551 | 1.07 | 0.728 | 0.626 | 0.521 | 0.546 | 0.923 | 0.663 | 1.07 | 0.368 | 0.706
GSSEGYLHMVH [NIPBL_Y247_D246G] | 0.477 | 0.794 | 0.9 | 0.333 | 0.368 | 0.388 | 0.616 | 0.403 | 0.617 | 0.396 | 0.427 | 0.679 | 0.419 | 0.474 | 0.424 | 0.491
MLEVPYVDHNS [F10_Y384_R387H] | 0.407 | 0.707 | 0.547 | 0.594 | 0.416 | 0.516 | 1.2 | 0.506 | 1.24 | 0.618 | 0.51 | 1.42 | 0.424 | 0.786 | 0.583 | 0.817
DDHFTYSRFPW [LY75_Y888_YF] | 0.418 | 0.833 | 0.64 | 4.84 | 4.83 | 0.905 | 1.16 | 4.98 | 1.28 | 6.66 | 5.18 | 1.07 | 3.18 | 0.797 | 0.609 | 1.66
MTRDIYETDYY [INSR_Y1185] | 0.744 | 0.716 | 0.6 | 1.39 | 1.63 | 1.89 | 2.66 | 2.42 | 1.02 | 1.39 | 1.34 | 1.13 | 0.746 | 1.93 | 0.831 | 0.712
SVGGCYEQLFV [MC4R_Y41_D37V] | 0.76 | 0.862 | 0.633 | 1.02 | 0.982 | 0.791 | 1.51 | 1.24 | 1.14 | 1.46 | 0.661 | 1.42 | 0.826 | 0.972 | 7.02 | 1.22
ESPGLYGFLNV [BCR_Y910] | 0.479 | 0.822 | 0.598 | 0.586 | 1.48 | 0.527 | 1.09 | 1.23 | 0.922 | 2.24 | 0.574 | 1.1 | 1.05 | 0.646 | 1.23 | 0.717

From the supplement of paper PMC10065799, “High-throughput profiling of sequence recognition by tyrosine kinases and SH2 domains using bacterial peptide display” (eLife, 2023)
